Consider four substances from patent US10253082B2, “Long-acting insulin and use thereof” (HANMI PHARM. CO., LTD., priority 2014, dated 2019).

The target of the experiment is Insulin receptors (Homo sapiens, UniProt P06213). Description: Insulin receptor binding affinity by surface plasmon resonance (BIACORE 3000). The settings on record: for ka / kd: SPR, immobilized insulin receptor, 1:1 Langmuir binding with baseline drift, Test 1-5 runs; for receptor binding affinity (KD) compared to human insulin: native human insulin of the same test = 100%. The protocol: Then, the insulin receptor binding affinity of each substance was examined. The binding affinity of each substance was calculated using BIAevaluation software. At this time, the model used was 1:1 Langmuir binding with baseline drift.
(In SPR one partner is held on a chip, and binding of the other changes the refractive index at the surface.)

Turning to “Insulin analog (No. 6): insulin analog, modified sequence B^24F->A; protein SEQ ID NO: 30”, the ka is listed as 0.28 1/Ms, ×10^5; the kd is 6.60 1/s, ×10^−3; the “receptor binding affinity (KD) compared to human insulin” value is given as “(14.8%)”.
As for “Insulin analog (No. 8): insulin analog, modified sequence A^14Y->E; protein SEQ ID NO: 34”, the ka is 1.78 1/Ms, ×10^5; the kd is on record as 12.9 1/s, ×10^−3; the “receptor binding affinity (KD) compared to human insulin” value is listed as “(57.1%)”.
With “Insulin analog (No. 7): insulin analog, modified sequence B^25F->A; protein SEQ ID NO: 32”, the ka was 0.14 1/Ms, ×10^5; the kd is 8.34 1/s, ×10^−3; the “receptor binding affinity (KD) compared to human insulin” value is on record as “(9.9%)”.
Turning to “Insulin analog (No. 9): insulin analog, modified sequence A^14Y->N; protein SEQ ID NO: 36”, the ka was 1.85 1/Ms, ×10^5; the kd was 11.9 1/s, ×10^−3; the “receptor binding affinity (KD) compared to human insulin” value is “(78.8%)”.
